Data as given in patent publication US20030108957A1.
Values joined by “and” are separate entries in the source; they are usually repeats but may differ in a detail not shown here. Equal values may be shown once.

B1: fluorescein-K-pyrrhocoricin (peptide)
peptide: KVDKGSYLPRPTPPRPIYNRN
modifications: not checked
B2: pyrrhocoricin (unlabeled, all L-amino acids, without sugar) (peptide)
peptide: VDKGSYLPRPTPPRPIYNRN
modifications: not checked

What was measured:
[1] = biological target: Hsp60 (the human equivalent of GroEL) (human), P10809; assay: fluorescence polarization, 1 nM labeled peptide, 2 µM protein; blank about 62
[2] = biological target: E. coli DnaK (E. coli), A1A766
[3] = biological target: E. coli DnaK aa588-615 (E. coli)
[4] = biological target: E. coli DnaK aa583-615 (hinge region between C-terminal helices D and E) (E. coli)
GroEL (E. coli), P0A6F5 [5] = biological target: GroEL (E. coli), P0A6F5
[6] = biological target: E. coli DnaK (E. coli), A1A766; remark: listed apart in the source
GroEL (E. coli), P0A6F5 [7] = biological target: GroEL (E. coli), P0A6F5; remark: listed apart in the source
GrpE, P09372 = biological target: T1, GrpE, P09372
T1 chain: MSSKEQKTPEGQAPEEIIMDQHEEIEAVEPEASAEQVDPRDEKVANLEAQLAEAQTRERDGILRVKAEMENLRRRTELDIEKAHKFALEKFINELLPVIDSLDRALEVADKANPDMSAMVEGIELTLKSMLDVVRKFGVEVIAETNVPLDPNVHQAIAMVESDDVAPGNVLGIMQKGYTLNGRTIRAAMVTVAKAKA

[8] = biological target: E. coli DnaK (E. coli), A1A766; remark: listed apart in the source
GroES, P0A6F9 = biological target: T2, GroES, P0A6F9
T2 chain: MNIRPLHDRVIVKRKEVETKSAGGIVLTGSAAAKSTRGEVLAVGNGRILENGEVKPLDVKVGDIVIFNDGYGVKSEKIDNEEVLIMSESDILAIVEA

[9] = biological target: guanyl-nucleotide binding protein Ras (21 kDa); assay: fluorescence polarization, 1 nM labeled peptide, 4 µM Ras; background without protein 46±7
[10] = biological target: Hsp60 (the human equivalent of GroEL) (human), P10809; assay: fluorescence polarization, 1 nM labeled peptide, 4 µM protein; blank about 62
[11] = biological target: E. coli DnaK (E. coli), A1A766; assay: cell-based or functional assay

Chain of Hsp60 (the human equivalent of GroEL) (human), P10809 (P10809 27-573 limits assumed): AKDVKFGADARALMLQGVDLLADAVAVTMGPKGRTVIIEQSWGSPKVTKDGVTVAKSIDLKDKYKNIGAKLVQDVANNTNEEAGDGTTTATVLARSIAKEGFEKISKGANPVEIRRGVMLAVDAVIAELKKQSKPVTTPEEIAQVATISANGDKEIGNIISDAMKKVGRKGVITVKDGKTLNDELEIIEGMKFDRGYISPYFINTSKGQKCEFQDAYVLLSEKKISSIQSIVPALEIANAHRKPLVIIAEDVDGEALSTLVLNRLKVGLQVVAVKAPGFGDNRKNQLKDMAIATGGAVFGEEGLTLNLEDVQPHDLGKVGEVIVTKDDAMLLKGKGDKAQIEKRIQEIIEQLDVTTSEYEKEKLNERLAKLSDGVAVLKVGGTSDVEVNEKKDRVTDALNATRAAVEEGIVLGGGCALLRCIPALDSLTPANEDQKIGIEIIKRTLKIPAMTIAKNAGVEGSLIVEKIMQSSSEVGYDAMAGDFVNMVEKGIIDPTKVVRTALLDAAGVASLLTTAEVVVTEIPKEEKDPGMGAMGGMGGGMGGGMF

Binder	minipolarization value (millipolarization) [1]	Kd [2]	millipolarization over the background [2]	Kd [3]	Kd [4]	Millipolarization (no competing peptide) (millipolarization) (GroEL (E. coli), P0A6F5 [5])	Millipolarization (no competing peptide) (millipolarization) [6]	minipolarization value (millipolarization) (GroEL (E. coli), P0A6F5 [7])	minipolarization value (millipolarization) (GrpE, P09372)	minipolarization value (millipolarization) [8]	minipolarization value (millipolarization) (GroES, P0A6F9)	millipolarization units (millipolarization units) [9]	minipolarization value (millipolarization) [10]	Millipolarization after preincubation (millipolarization) (GroEL (E. coli), P0A6F5 [5])	Millipolarization after preincubation (millipolarization) [6]	ATPase activity of recombinant DnaK (EnzChek assay, UV absorbance at 360 nm), 50 molar equivalents of peptide (fraction of the original value) [11]
B1	62	1.1 µM	50%	93 µM	50.8 µM	70	126	> 100 and 85	< 62	100 and 95	< 62	52	90	–	–	–
B2	–	–	–	–	–	–	–	–	–	–	–	–	–	62	110 and 84	< 0.5
